Measurements as given in patent US20230116587A1.

Target: RBD of the recombinantly expressed S protein (novel coronavirus SARS-CoV-2) (UniProt P0DTC2)
Test: ELISA, RBD coated at 0.01 µg/ml, antibody 0.1 µg/ml, HRP anti-human IgG Fc

## irrelevant control antibody
  OD450 reading: 0.006 OD450
